Experimental data taken from patent US7247438.
Blank lines part the entries; values can stand above or below the substance they belong to.

Columns and labels:
[1] = molecular target: VSV8/Kb complex (vesicular stomatitis virus; mouse) (UniProt P01887); assay: cell-based or functional assay
[2] = molecular target: activated thymic caspase (~17 kD subunit) of VSV8-triggered N15 TCRtg RAG-2-/- H-2b mouse thymocytes (mouse); assay: cell-based or functional assay
[3] = molecular target: activated thymic caspase (~17 kD subunit) of VSV8-triggered N15 TCRtg RAG-2-/- H-2b mouse thymocytes (mouse); assay: preincubation with zVADfmk, competitor biotin-DEVDamk, thymic lysate, streptavidin-HRP blot
mouse CD3ε (mouse) = mouse CD3ε (mouse) (UniProt P22646); assay: cell-based or functional assay

Substance: N15 TCR
- TdT positive cells per mm2 (TUNEL), FTOC N15tg #1, VSV8 (TdT positive cells / mm2) [1]: 429
- TdT positive cells per mm2 (TUNEL), FTOC N15tg #2, VSV8 (TdT positive cells / mm2) [1]: 456
- TdT positive cells per mm2 (TUNEL), FTOC N15tg #3, VSV8 (TdT positive cells / mm2) [1]: 441

- TdT positive cells per mm2 (TUNEL), FTOC N15tg #1, zVADmk + VSV8 (TdT positive cells / mm2) [2]: 360
- TdT positive cells per mm2 (TUNEL), FTOC N15tg #2, zVADmk + VSV8 (TdT positive cells / mm2) [2]: 525
- TdT positive cells per mm2 (TUNEL), FTOC N15tg #3, zVADmk + VSV8 (TdT positive cells / mm2) [2]: 461
Substance: N-(Z-Valinylalanyl)aspartic acid methyl ketone, b-methyl ester (peptide)

- TdT positive cells per mm2 (TUNEL), FTOC N15tg #1, zVADfmk + VSV8 (TdT positive cells / mm2) [2]: 6
- TdT positive cells per mm2 (TUNEL), FTOC N15tg #2, zVADfmk + VSV8 (TdT positive cells / mm2) [2]: 1
- TdT positive cells per mm2 (TUNEL), FTOC N15tg #3, zVADfmk + VSV8 (TdT positive cells / mm2) [2]: 2
- molar excess over biotin-DEVDamk at which the ~17 kD band is no longer detectable [3]: 100 to 1000 fold
Substance: N-benzyloxycarbonyl-Val-Ala-Asp(OMe)-fluoromethylketone (peptide)

- percent DP thymocytes in C57BL/6 FTOC after 18 hours with 200 mg/ml 2C11 mAb (FACS) (mouse CD3ε (mouse)): 37%
Substance: anti-CD3ε specific hamster anti-mouse mAb 145-2C11 (antibody)
